Here are results for 1 substance from article PMC5394236.

This test addresses GST fused recombinant Pparγ LBD protein (UniProt P37231). As to the kind of experiment: co-immunoprecipitation (IP: Flag) with immunoblot band intensity quantification. The settings on record: lysates of HEK293 cells transfected with Flag-Lrp1β-Wt or Mut mixed with GST fused recombinant Pparγ LBD protein; n=3; parent: est. 100; read off a plot.
UniProt P37231, sequence (P37231 whole entry, the tested form may be a part): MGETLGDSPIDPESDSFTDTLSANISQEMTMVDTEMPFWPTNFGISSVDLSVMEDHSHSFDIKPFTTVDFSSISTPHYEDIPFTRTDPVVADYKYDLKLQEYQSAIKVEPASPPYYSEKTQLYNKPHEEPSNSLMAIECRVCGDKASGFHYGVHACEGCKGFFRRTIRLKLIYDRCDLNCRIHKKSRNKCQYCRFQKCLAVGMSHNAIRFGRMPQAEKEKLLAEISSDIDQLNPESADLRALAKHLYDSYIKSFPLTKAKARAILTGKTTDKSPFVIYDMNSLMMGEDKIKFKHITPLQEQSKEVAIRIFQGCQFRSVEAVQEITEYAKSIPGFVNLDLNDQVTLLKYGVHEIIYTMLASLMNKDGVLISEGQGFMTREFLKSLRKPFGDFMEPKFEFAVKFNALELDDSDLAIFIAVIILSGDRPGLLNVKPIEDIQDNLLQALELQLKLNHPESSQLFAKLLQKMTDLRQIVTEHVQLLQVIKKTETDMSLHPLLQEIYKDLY

Take Flag-Lrp1β-Wt (VGGLL) L4487A; L4488A: the percent of parent was 13%.
